Source: article PMC4061085

How the values were obtained:
[1] = biological target: CK1δ KD (kinase domain of CK1δ) (rat) (UniProt Q06486)
[2] = biological target: CK1ε from human as HIS-tagged fusion protein (human) (UniProt P49674)
[3] = biological target: CK1δ from rat as GST-tagged fusion protein (rat) (UniProt Q06486)

Chain of UniProt P49674 (P49674 whole entry, the tested form may be a part): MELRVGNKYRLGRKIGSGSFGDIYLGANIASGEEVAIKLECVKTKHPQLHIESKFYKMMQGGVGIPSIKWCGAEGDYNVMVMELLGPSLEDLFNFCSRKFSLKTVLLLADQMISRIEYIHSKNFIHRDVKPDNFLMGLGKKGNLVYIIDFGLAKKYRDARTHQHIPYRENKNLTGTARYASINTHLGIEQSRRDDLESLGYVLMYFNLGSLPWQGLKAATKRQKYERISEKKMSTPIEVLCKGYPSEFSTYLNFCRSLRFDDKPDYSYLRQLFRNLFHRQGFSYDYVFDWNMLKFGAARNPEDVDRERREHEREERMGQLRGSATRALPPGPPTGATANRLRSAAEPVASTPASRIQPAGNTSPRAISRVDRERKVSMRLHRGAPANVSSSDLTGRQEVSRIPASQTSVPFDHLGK

| Substance | Km of phosphorylation of GST-tubulin by the CK1 isoform (Michaelis-Menten kinetics, in vitro kinase assay, 32P incorporation, 30 min at 30°C) [1] [nM] | Km of phosphorylation of GST-tubulin by the CK1 isoform (Michaelis-Menten kinetics, in vitro kinase assay, 32P incorporation, 30 min at 30°C) [2] [nM] | Km of phosphorylation of GST-tubulin by the CK1 isoform (Michaelis-Menten kinetics, in vitro kinase assay, 32P incorporation, 30 min at 30°C) [3] [nM] |
| --- | --- | --- | --- |
| Recombinant human α-tubulin4A (GST-tubulin) (from UniProt P68366 1-448) (natural protein) | 438 | 602 | 337 |
| Recombinant human β-tubulin2A (GST-tubulin) (from UniProt Q13885 1-445) (natural protein) | 1470 | 1410 | 1170 |
| Recombinant human α-tubulin1B (GST-tubulin) (from UniProt P68363 1-451) (natural protein) | 266 | 329 | 205 |
